Measured values as given in patent publication US20240218342A1, “SITE-SPECIFIC GLYCAN REMODELING OF LYSOSOMAL ENZYMES AND APPLICATIONS THEREOF” (priority 2021, published 2024).

Legend:
[1] = biological target: Bovine RNase B (bovine) (UniProt P61823)
[2] = biological target: GlcNAc-RNase B (67) (bovine) (UniProt P61823)
Sequence of GlcNAc-RNase B (67) (bovine) (P61823 27-150): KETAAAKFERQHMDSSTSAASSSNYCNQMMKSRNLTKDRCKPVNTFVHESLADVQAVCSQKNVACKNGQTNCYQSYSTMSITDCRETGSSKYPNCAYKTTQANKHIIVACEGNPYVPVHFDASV

Sequence of Bovine RNase B (bovine) (P61823 27-150): as above

B1: Wild-type Endo-A (enzyme)
chain: STYNGPLSSHWFPEELAQWEPDSDPDAPFNRSHVPLEPGRVANRVNANADKDAHLVSLSALNRHTSGVPSQGAPVFYENTFSYWHYTDLMVYWAGSAGEGIIVPPSADVIDASHRNGVPILGNVFFPPTVYGGQLEWLEQMLEQEEDGSFPLADKLLEVADYYGFDGWFINQETEGADEGTAEAMQAFLVYLQEQKPEGMHIMWYDSMIDTGAIAWQNHLTDRNKMYLQNGSTRVADSMFLNFWWRDQRQSNELAQALGRSPYDLYAGVDVEARGTSTPVQWEGLFPEGEKAHTSLGLYRPDWAFQSSETMEAFYEKELQFWVGSTGNPAETDGQSNWPGMAHWFPAKSTATSVPFVTHFNTGSGAQFSAEGKTVSEQEWNNRSLQDVLPTWRWIQHGGDLEATFSWEEAFEGGSSLQWHGSLAEGEHAQIELYQTELPISEGTSLTWTFKSEHGNDLNVGFRLDGEEDFRYVEGEQRESINGWTQWTLPLDAFAGQTITGLAFAAEGNETGLAEFYIGQLAVGADSEKPAAPNVNVRQYDPDPSGIQLVWEKQSNVHHYRVYKETKHGKELIGTSAGDRIYLEGLVEESKQNDVRLHIEALSETFVPSDARMIDIKSGSF
deglycosylation of RNase B, isolated yield of GlcNAc-RNase B 67 [1]: 86% | transglycosylation of oxazoline 8 to GlcNAc-RNase B, yield of glycoprotein 68 [2]: 71%
